Experimental findings from paper PMC9736959, “Enzyme-Linked Aptamer Kits for Rapid, Visual, and Sensitive Determination of Lactoferrin in Dairy Products” are described below.

This data set deals with lactoferrin (Lf) (bovine (from bovine milk), UniProt P24627 20-708). Description: competition (indirect competitive enzyme-linked aptamer assay against immobilized cDNA S2); linear 25-500 nM Lf, LOD 14.01 nM (not a Kd); aptamer as SA-HRP conjugate; PBS pH 7.2, about 25 °C; Lf and recognition probe 5 min, then 30 min on cDNA-coated plate; PBS-T (0.05% Tween-20) washes. The settings on record: protein: commercial; label: biotin; coupled to SA-HRP in the recognition probe; capture strand S2 is not an exact complement (fewer G opposite the C run).
lactoferrin (Lf), sequence (P24627 20-708): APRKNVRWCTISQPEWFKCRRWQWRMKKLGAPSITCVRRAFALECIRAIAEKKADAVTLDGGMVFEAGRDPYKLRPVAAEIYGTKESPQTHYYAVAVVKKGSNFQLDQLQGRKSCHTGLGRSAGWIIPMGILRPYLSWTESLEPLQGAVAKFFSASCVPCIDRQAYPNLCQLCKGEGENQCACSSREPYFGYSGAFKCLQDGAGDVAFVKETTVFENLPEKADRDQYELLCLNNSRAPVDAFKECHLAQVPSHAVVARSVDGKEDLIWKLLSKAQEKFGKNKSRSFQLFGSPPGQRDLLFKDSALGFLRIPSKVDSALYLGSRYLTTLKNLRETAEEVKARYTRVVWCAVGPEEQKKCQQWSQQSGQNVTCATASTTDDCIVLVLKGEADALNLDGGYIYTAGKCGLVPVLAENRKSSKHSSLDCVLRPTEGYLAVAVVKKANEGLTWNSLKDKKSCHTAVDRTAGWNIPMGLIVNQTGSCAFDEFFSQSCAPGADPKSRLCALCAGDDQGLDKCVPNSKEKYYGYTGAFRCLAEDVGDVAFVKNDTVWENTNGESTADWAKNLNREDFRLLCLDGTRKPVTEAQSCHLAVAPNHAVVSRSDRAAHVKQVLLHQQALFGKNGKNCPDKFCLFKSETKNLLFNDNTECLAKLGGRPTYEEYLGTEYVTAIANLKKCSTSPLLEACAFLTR

For the molecule TGGTGCTGCCCCCCTAGTCTCCGGCTGCTTCTTGG (ssDNA, 5' biotin (so in the source)) [Lf aptamer (biotin-Apt)], the binding result is “binds”.
